For orientation: Kd means the constant that tells how readily two partners part at equilibrium.

We go through 6 molecules from article PMC9654219, “Molecular Mechanism of Sirtuin 1 Modulation by the AROS Protein” (International Journal of Molecular Sciences, 2022).

The labels stand for the following.
B1: active regulator of Sirt1 (AROS), full length, residues 1-136 (natural protein, human, UniProt Q86WX3 1-136, looked up)
chain: MSAALLRRGLELLAASEAPRDPPGQAKPRGAPVKRPRKTKAIQAQKLRNSAKGKVPKSALDEYRKRECRDHLRVNLKFLTRTRSTVAESVSQQILRQNRGRKACDRPVAKTKKKKAEGTVFTEEDFQKFQQEYFGS
notes: human AROS (RPS19BP1), residues 1-136, with N-terminal hexahistidine tag and TEV protease cleavage site (modified pET19b); No tag removal is described; 15N-labelled for the NMR titrations; In MST either AROS or Sirt1 carried Cy5 on lysines; also called AROS 1–136; full-length AROS; not shown: His6, N-terminal, kept
B2: AROS peptide 80-91 (peptide)
peptide: TRTRSTVAESVS
notes: human AROS (RPS19BP1), residues 80-91; also called AROS80-91; AROS 80–91; source: synthetic peptide, bought: GL Biochem
B3: AROS peptide 96-109 (peptide)
peptide: RQNRGRKACDRPVA
notes: human AROS (RPS19BP1), residues 96-109; also called AROS96-109; AROS 96–109; source: synthetic peptide, bought: GL Biochem
B4: Sirt1 144–230 (N-terminus and SBD) (domain or fragment, human, UniProt Q96EB6 144-230, looked up)
chain: DNLLFGDEIITNGFHSCESDEEDRASHASSSDWTPRPRIGPYTFVQQHLMIGTDPRTILKDLLPETIPPPELDDMTLWQIVINILSE
notes: also called Sirt1-SBD
B5: mini-Sirt1ex687 (domain or fragment)
chain: GPYTFVQQHLMIGTDPRTILKDLLPETIPPPELDDMTLWQIVINILSEPPKRKKRKDINTIEDAVKLLQECKKIIVLTGAGVSVSCGIPDFRSRDGIYARLAVDFPDLPDPQAMFDIEYFRKDPRPFFKFAKEIYPGQFQPSLCHKFIALSDKEGKLLRNYTQNIDTLEQVAGIQRIIQCHGSFATASCLICKYKVDCEAVRGDIFNQVVPRCPRCPADEPLAIMKPEIVFFGENLPEQFHRAMKYDKDEVDLLIVIGSSLKVRPVALIPSSIPHEVPQILINREPLPHLHFDVELLGDCDVIINELCHRLGGEYAKLCCNPVGGGSGGGSQYLFLPPNRYIFHGAEVYSDSEDDVLSSSSCGSNSDSGTCQSPSLEE
B6: AROS peptide 62-71 (peptide)
peptide: EYRKRECRDH
notes: human AROS (RPS19BP1), residues 62-71; also called AROS62-71; AROS 62–71; source: synthetic peptide, bought: GL Biochem

For one assay, the target named is T1, full-length Sirt1 (human, UniProt Q96EB6 1-747).
T1 sequence (looked up): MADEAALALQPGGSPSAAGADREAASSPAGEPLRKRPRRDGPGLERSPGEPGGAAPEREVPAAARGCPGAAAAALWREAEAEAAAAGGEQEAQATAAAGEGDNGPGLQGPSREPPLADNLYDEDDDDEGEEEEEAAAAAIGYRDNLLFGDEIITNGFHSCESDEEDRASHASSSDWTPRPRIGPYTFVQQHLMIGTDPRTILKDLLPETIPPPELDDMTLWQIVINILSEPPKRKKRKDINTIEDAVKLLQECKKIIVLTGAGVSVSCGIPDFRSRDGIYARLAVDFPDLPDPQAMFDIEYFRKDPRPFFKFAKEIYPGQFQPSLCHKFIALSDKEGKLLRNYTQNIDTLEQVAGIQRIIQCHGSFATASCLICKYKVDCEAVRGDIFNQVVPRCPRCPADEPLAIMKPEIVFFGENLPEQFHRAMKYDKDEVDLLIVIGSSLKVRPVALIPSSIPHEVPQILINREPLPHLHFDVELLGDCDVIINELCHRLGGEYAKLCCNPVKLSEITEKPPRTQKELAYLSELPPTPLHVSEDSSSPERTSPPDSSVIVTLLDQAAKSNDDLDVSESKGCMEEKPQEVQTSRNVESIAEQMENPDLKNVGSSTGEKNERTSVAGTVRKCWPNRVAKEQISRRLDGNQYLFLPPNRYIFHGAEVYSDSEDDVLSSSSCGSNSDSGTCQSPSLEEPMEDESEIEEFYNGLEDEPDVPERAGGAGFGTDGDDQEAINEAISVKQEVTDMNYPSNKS
The assay can be described thus: cell-based or functional assay.

For another assay, the target named is T2, Sirt5 residues 34–302 (human, UniProt Q9NXA8 34-302).
T2 construct: human Sirt5, residues 34-302 (pET151/D-TOPO); source: E. coli BL21 (DE3) CodonPlus, purified (Ni beads, TEV cleavage, S200 gel filtration)
T2 sequence (looked up): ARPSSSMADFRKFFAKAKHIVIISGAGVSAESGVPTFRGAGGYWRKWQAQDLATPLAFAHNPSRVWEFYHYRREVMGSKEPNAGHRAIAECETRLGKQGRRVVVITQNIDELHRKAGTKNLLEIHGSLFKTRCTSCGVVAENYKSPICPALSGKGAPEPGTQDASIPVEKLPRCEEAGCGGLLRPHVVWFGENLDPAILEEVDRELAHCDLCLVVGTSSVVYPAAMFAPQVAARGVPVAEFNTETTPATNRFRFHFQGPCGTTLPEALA
Put plainly: cross-linking; 2 mM DSSO, 50 µM of each protein, 50 mM NaHPO4 pH 7, 250 mM NaCl, RT; SDS-PAGE; bands analysed by LC-ESI-MS/MS. The conditions noted are these: both partners purified.

The target in assay [1] is B4. Put plainly: MST; either AROS or Sirt1 labelled with Cy5-NHS ester (40–120 nM labelled protein); 50 mM Na2HPO4/NaH2PO4 pH 7.0, 250 mM NaCl, 2 mg/mL BSA, 20 °C; Monolith NT.115. Particulars: both partners purified.
The target in the assay “mini-Sirt1ex687” is B5. The description is as above. The conditions noted are these: both partners purified.
Assay [2] has as its target T3, AROS 1–89 (N-terminus of AROS) (human, UniProt Q86WX3 1-89).
T3 construct: human AROS (RPS19BP1), residues 1-89; Preparation is told for 'human AROS constructs' in general
T3 sequence (looked up): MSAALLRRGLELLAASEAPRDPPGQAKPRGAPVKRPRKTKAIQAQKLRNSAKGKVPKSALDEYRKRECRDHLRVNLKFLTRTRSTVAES
Described as above. The conditions noted are these: both partners purified.

Assay [3] deals with B1. The assay is described as above. The conditions noted are these: both partners purified.
A further assay addresses T4, Sirt3 residues 118–399 (human, UniProt Q9NTG7 118-399).
T4 construct: human Sirt3, residues 118-399 (pVFT3S); source: E. coli BL21 (DE3) CodonPlus, purified (Ni beads, TEV cleavage, ion exchange, S200 gel filtration)
T4 sequence (looked up): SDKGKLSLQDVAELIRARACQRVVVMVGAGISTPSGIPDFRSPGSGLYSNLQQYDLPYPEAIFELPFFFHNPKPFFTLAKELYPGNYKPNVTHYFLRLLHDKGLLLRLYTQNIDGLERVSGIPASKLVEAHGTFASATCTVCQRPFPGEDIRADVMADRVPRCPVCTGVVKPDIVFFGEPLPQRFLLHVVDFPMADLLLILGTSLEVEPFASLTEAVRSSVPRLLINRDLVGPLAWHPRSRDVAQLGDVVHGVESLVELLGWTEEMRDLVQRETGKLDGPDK
Put plainly: crystal structure; 10 mg/mL Sirt3 pre-incubated with 1 mM AROS peptide 62–71 and 1 mM AROS peptide 96–109; 12% PEG 8.000, 0.1 M HEPES pH 7.5, 0.2 M NaCl, 20 °C; 3.27 Å. The conditions noted are these: both partners purified.

In the case of B1, the “increase of KM for the acetylated FdL substrate peptide with 40 µM AROS (FdL activity assay, substrate titration)” value with full-length Sirt1 was around 3 fold. Also, the binding result with Sirt5 residues 34–302 is on record as “binds”.
Take B2: the Kd in assay [1] came out at 579 ± 102 µM; in the assay with mini-Sirt1ex687, 721 ± 310 µM.
In the case of B3, the Kd in the assay with mini-Sirt1ex687 was 151 ± 31 µM.
In assay [2], B4 came in with a Kd of 209 ± 67 µM.
As for B5, the Kd was found to be 1.3 ± 0.2 µM in assay [3] and 65 ± 9 µM in assay [2].
Regarding B6, the figures for the Kd (in assay [1]; with mini-Sirt1ex687) were 166 ± 24 µM and 86 ± 16 µM, respectively. Further, the binding result with Sirt3 residues 118–399 is reported as “binds”.
